Here are results for 39 sequences from the supplement of paper PMC7877785.

This data set in a line: self-splicing fitness, log relative to wild type (ln ratio); higher = more splicing; Tetrahymena group I intron in knt gene, E. coli kanamycin selection, DiMSum; sequences stand for … in CUCUCU…GGAGGGAAAAGUUAUCAGGCAUGCACCUGGUAGCUAGUCUUUAAACCAAUAGAUUGCAUCGGUUUAAAAGGCAAGACCGUCAAAUUGCGGGAAAGGGGUCAACAGCCGUUCAGUACCAAGUCUCAGGGGAAACUUUGAGAUGGCCUUGCAAAGGGUAUGGUAAUAAGCUGACGGACAUGGUCCUAACCACGCAGCCAAGUCCUAAGUCAACAGAUCUUCUGUUGAUAUGGAUGCAGUUCACAGACUAAAUGUCGGUCGGGGAAGAUGUAUUCUUCUCAUAAGAUAUAGUCGGACCUCUCCUUAAUGGGAGCUAGCGGAUGAAGUGAUGCAACACUGGAGCCGCUGGGAACUAAUUUGUAUGCGAAAGUAUAUUGAUUAGUUUUGGAGUACUCGUGGUCG
The method, boiled down: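 Fitness was computed with DiMSum as the error-weighted combination of replicate fold changes, kanamycin versus none, each normalised to wild type. The library randomised all eight intron nucleotides of the P1ex region, with the intron placed in the knt kanamycin-resistance gene on pET-22b(+) in E. coli BL21(DE3). Six replicate transformations were grown overnight at 37°C or 30°C on LB agar with or without 25 μg/mL kanamycin, plus 100 μg/mL carbenicillin, 50 μM IPTG and 0.2% rhamnose. Pooled colonies were amplicon-sequenced on an Illumina HiSeq 2500.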

± gives the uncertainty stated by the source.

Consider GCGGAGCAAUAUUACGCAUA, for which the “self-splicing fitness (ln)” value (30 °C) is -2.55 ± 0.49 and the “self-splicing fitness (ln)” value (37 °C) was -2.74 ± 0.36.

CCUAAGCAAUAUUACGUAAG: the “self-splicing fitness (ln)” value is -0.318 ± 0.064 (30 °C) and -0.35 ± 0.087 (37 °C).

On to GUAGAGCAAUAUUACGCUAG, for which the “self-splicing fitness (ln)” value (30 °C) was -0.754 ± 0.13 and the “self-splicing fitness (ln)” value (37 °C) is 0.329 ± 0.21.

AGGGAGCAAUAUUACGUCUG: the “self-splicing fitness (ln)” value (37 °C) was -1.73 ± 0.36.

As to GCUGAGCAAUAUUACGUACU, the “self-splicing fitness (ln)” value by setting is: (30 °C) -1.76 ± 0.23; (37 °C) -1.07 ± 0.27.

Consider GUGAAGCAAUAUUACGUAGC, for which the “self-splicing fitness (ln)” value is -3.31 ± 0.15 (30 °C) and -1.84 ± 0.18 (37 °C).

With CUUUAGCAAUAUUACGUAAU, the “self-splicing fitness (ln)” value was -2.49 ± 0.16 (30 °C) and -2.78 ± 0.33 (37 °C).

With CUCCAGCAAUAUUACGUUUA, the “self-splicing fitness (ln)” value (30 °C) is -3.31 ± 0.27 and the “self-splicing fitness (ln)” value (37 °C) is -2.27 ± 0.18.

For the sequence CGUCAGCAAUAUUACGGCCU, the “self-splicing fitness (ln)” value (30 °C) is -0.913 ± 0.17 and the “self-splicing fitness (ln)” value (37 °C) is -1.79 ± 0.29.

Turning to CACUAGCAAUAUUACGGGGA, the “self-splicing fitness (ln)” value (30 °C) was -2.57 ± 0.19 and the “self-splicing fitness (ln)” value (37 °C) was -1.63 ± 0.17.

Turning to UAGAAGCAAUAUUACGGAUU, the “self-splicing fitness (ln)” value (30 °C) is -1.57 ± 0.11 and the “self-splicing fitness (ln)” value (37 °C) was -1.37 ± 0.15.

Regarding GAGGAGCAAUAUUACGGGUU, the “self-splicing fitness (ln)” value (30 °C) was -1.74 ± 0.14 and the “self-splicing fitness (ln)” value (37 °C) is -2.23 ± 0.22.

In the case of UCGCAGCAAUAUUACGUGGA, the “self-splicing fitness (ln)” value is -1.93 ± 0.11 (30 °C) and -1.57 ± 0.084 (37 °C).

Regarding AAAGAGCAAUAUUACGCCGU, the “self-splicing fitness (ln)” value was -3.07 ± 0.48 (30 °C) and -1.74 ± 0.42 (37 °C).

Take CACUAGCAAUAUUACGUUCG: the “self-splicing fitness (ln)” value by setting is: (30 °C) 0.203 ± 0.084; (37 °C) 0.725 ± 0.11.

Turning to CUGCAGCAAUAUUACGGAAA, the “self-splicing fitness (ln)” value runs as follows: (30 °C) -2.27 ± 0.21; (37 °C) -1.56 ± 0.38.

For CGUUAGCAAUAUUACGCGUU, the “self-splicing fitness (ln)” value reads like this: (30 °C) -4.08 ± 0.13; (37 °C) -2.39 ± 0.12.

For AGACAGCAAUAUUACGCAUG, the “self-splicing fitness (ln)” value was -2.45 ± 0.13 (30 °C) and -1.23 ± 0.11 (37 °C).

With CGCUAGCAAUAUUACGUUGG, the “self-splicing fitness (ln)” value runs as follows: (30 °C) -4 ± 0.23; (37 °C) -2.24 ± 0.19.

Regarding GCACAGCAAUAUUACGAAGU, the “self-splicing fitness (ln)” value is -1.3 ± 0.11 (30 °C) and -0.941 ± 0.14 (37 °C).

As to AGAAAGCAAUAUUACGGUUC, the “self-splicing fitness (ln)” value (30 °C) is -2.72 ± 0.12 and the “self-splicing fitness (ln)” value (37 °C) is -1.83 ± 0.13.

Consider CGAGAGCAAUAUUACGUACG, for which the “self-splicing fitness (ln)” value is, setting by setting: (30 °C) -3.14 ± 0.17; (37 °C) -2.28 ± 0.29.

Turning to UGUGAGCAAUAUUACGGGGA, the “self-splicing fitness (ln)” value was -2.36 ± 0.29 (30 °C) and -1.65 ± 0.33 (37 °C).

In the case of GGCCAGCAAUAUUACGGUCC, the “self-splicing fitness (ln)” value is -3.11 ± 0.21 (30 °C) and -2.45 ± 0.37 (37 °C).

As for CUUCAGCAAUAUUACGUAAA, the “self-splicing fitness (ln)” value by setting is: (30 °C) -3.05 ± 0.15; (37 °C) -2.12 ± 0.19.

In the case of GAUCAGCAAUAUUACGCAGU, the “self-splicing fitness (ln)” value (30 °C) was -1.74 ± 0.083 and the “self-splicing fitness (ln)” value (37 °C) was -0.88 ± 0.12.

In the case of CACUAGCAAUAUUACGGAUU, the “self-splicing fitness (ln)” value by setting is: (30 °C) -4.22 ± 0.2; (37 °C) -2.28 ± 0.12.

AGAGAGCAAUAUUACGUUUA: the “self-splicing fitness (ln)” value (37 °C) was -2.08 ± 0.33.

In the case of CGUGAGCAAUAUUACGUACU, the “self-splicing fitness (ln)” value reads like this: (30 °C) -1.7 ± 0.12; (37 °C) -0.396 ± 0.14.

For AACGAGCAAUAUUACGGACA, the “self-splicing fitness (ln)” value is, setting by setting: (30 °C) -2.38 ± 0.12; (37 °C) -1.57 ± 0.11.

On to AAUCAGCAAUAUUACGCAGU, for which the “self-splicing fitness (ln)” value was -0.402 ± 0.066 (30 °C) and -0.257 ± 0.078 (37 °C).

GACGAGCAAUAUUACGACAG: where the note is “37 °C”, the “self-splicing fitness (ln)” value is -1.89 ± 0.23.

As for GUCUAGCAAUAUUACGCAGA, for the setting “37 °C”, the “self-splicing fitness (ln)” value is -2.48 ± 0.31.

CUUGAGCAAUAUUACGAUGG: the “self-splicing fitness (ln)” value reads like this: (30 °C) -2.94 ± 0.2; (37 °C) -2.13 ± 0.23.

Consider UGAGAGCAAUAUUACGGUGG, for which the “self-splicing fitness (ln)” value reads like this: (30 °C) -3.4 ± 0.17; (37 °C) -2.82 ± 0.2.

With AGAGAGCAAUAUUACGCACC, the “self-splicing fitness (ln)” value (30 °C) worked out at 0.805 ± 0.35.

Turning to AGCGAGCAAUAUUACGAUCC, the “self-splicing fitness (ln)” value (37 °C) was -0.865 ± 0.49.

As for UAAUAGCAAUAUUACGGUCA, the “self-splicing fitness (ln)” value by setting is: (30 °C) -0.412 ± 0.11; (37 °C) -0.333 ± 0.11.

As for GAGAAGCAAUAUUACGUCUA, the “self-splicing fitness (ln)” value (30 °C) was -0.555 ± 0.076 and the “self-splicing fitness (ln)” value (37 °C) came to 0.35 ± 0.092.
